# Assay results: article PMC9009071, “Pyruvate kinase, a metabolic sensor powering glycolysis, drives the metabolic control of DNA replication” (BMC Biology, 2022)
# T1: PykA (Bacillus subtilis, UniProt P80885)
# T1 construct: gene pyk; full length, 585 residues (1755 bp); N-terminal His-MBP tag removed by TEV; E. coli Rosetta(DE3); homotetramer
# T1 sequence (P80885 2-585): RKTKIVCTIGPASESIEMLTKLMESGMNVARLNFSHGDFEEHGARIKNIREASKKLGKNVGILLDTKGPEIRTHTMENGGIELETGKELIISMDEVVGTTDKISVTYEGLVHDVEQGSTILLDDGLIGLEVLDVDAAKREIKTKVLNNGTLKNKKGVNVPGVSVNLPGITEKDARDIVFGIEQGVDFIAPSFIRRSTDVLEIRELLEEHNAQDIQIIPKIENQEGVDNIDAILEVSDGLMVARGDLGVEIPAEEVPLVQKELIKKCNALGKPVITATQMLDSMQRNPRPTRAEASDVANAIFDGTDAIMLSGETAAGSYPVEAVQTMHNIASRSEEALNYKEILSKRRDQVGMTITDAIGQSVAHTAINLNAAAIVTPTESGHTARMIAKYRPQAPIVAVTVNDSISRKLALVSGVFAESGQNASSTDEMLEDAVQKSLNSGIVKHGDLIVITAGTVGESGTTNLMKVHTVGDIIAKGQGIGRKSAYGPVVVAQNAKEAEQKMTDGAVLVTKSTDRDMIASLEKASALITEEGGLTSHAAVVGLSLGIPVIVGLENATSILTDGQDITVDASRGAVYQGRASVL
# T2: PykA (pyruvate kinase) (Bacillus subtilis, UniProt P80885 1-585)
# T2 sequence: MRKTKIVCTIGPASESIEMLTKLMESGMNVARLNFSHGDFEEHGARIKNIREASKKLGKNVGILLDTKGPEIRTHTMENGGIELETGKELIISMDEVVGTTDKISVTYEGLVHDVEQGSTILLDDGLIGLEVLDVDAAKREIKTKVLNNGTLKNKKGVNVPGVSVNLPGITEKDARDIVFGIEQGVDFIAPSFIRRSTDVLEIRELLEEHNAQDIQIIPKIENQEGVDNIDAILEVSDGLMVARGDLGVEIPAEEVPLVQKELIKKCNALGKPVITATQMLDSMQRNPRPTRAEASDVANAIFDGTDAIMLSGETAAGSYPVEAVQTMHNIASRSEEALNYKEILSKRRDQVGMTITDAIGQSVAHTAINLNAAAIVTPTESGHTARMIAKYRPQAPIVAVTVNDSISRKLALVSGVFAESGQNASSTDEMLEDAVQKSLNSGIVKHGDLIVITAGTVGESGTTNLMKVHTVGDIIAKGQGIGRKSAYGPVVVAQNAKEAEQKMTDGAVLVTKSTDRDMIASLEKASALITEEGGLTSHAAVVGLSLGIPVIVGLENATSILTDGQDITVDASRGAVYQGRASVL
# B1: 15mer primer annealed to 30mer template (dsDNA)
# DNA 1: AAGGGGGTGTGTGTG
# DNA 2: ACACACACACACACACACACACACCCCCTT
# B2: Bacillus subtilis pyruvate kinase PykA (enzyme, UniProt P80885 1-585, looked up)
# chain: T2 sequence
# notes: Pyruvate kinase PykA of Bacillus subtilis; 1755 bp fragment carrying the pykA gene amplified from genomic DNA and cloned in p2CT; theoretical monomer mass 62,314.9 Da; The forward primer PyKAF starts at the codon for Arg2 (AGA AAA ACT ...), so the first methionine is probably absent; A few vector residues probably remain after TEV cleavage; also called full length PykA; BsuPykA; source: E. coli …
# B3: PykA (Bacillus subtilis subsp. subtilis str. 168) (protein)
# chain: T1 sequence (P80885 2-585)
# notes: full length, 585 residues (1755 bp); N-terminal His-MBP tag removed by TEV; E. coli Rosetta(DE3); homotetramer
# Columns and labels:
# PykA = target: T1, PykA; test: LDH-coupled NADH oxidation at […] nm, Michaelis-Menten fit; assay type: biochemical; conditions: 2 mM ADP, 10 mM MgCl2, 50 mM KCl, 10 mM Tris-HCl pH 7.5, 25 °C; no effector added
# PykA (pyruvate kinase) = target: T2, PykA (pyruvate kinase); test: EMSA; 1,250 nM PykA tetramer, 1 nM DNA, 10 mM Mg2+, no DnaE; EMSA: 50 mM Tris-HCl pH 7.5, 50 mM NaCl, 10 mM MgCl2, 10 min at 37 °C, 1 nM DNA; conditions: protein: recombinant; tags: none (N-terminal His-MBP removed by TEV); chain copies: 4; label: 5'-32P on the 15mer; 15mer pairs with the 3' half of the 30mer; template 5' overhang 15 nt
# [1] = target: the molecule itself; test: native MS; purified PykA, 4 uM, in 200 mM ammonium acetate pH 6.8; nano-electrospray on a modified Q-Tof; self-association (tetramer)
# purified protein = substrate: C=C(OP(=O)(O)O)C(=O)O; test: purified protein; assay type: biochemical, Bacillus subtilis; conditions: 2 mM ADP, 10 mM MgCl2, 50 mM KCl, 10 mM Tris-HCl pH 7.5, 25 °C, no effector added, Hill coefficient n = 0.8111
molecule,measurement,setting,value
C=C(OP(=O)(O)O)C(=O)O [PEP],Km,PykA,1700 µM
B1,binding result,PykA (pyruvate kinase),no binding
B2,stoichiometry N,[1],4
B3,K0.5,purified protein,2.7 mM
